{"source": "paper PMC3615019", "about": "“Mapping the Binding Interface between an HIV-1 Inhibiting Intrabody and the Viral Protein Rev” (PLoS ONE, 2013)", "binders": {"B1": {"name": "Nb190, wild type, purified from E. coli (VHH)", "VHH": "QVQLQESGGGLVQAGGSLRLSCAASGSIFSINTMGWYRQAPGKQRELVAFATSGGSTNYPDSVKGRFTISRDNVKNTVYLQMNSLKPEDTAVYYCNIDGFLGSLYKDYWSQGTQVTVSS"}}, "target": "T1, HIV-1 Rev protein (mobility shift assay, bound to stem-loop IIB RRE RNA) (HIV-1, strain  for this …, UniProt P04618)", "T1 construct": "also called IIB associated Rev", "T1 sequence (P04618 whole entry)": "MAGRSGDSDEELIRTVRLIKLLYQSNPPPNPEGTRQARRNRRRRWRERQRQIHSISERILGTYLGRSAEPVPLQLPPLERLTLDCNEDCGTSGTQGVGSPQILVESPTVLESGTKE", "test": "native gel or EMSA", "settings": "both partners purified"}
{"binder": "B1", "values": [{"measurement": "binding result", "result": "binds"}]}
